# B1: MOA: M. oreades lectin (agglutinin) with binding specificity for Galα1,3Gal; single polypeptide of approximately 33 kDa (protein)
# chain: MSLRRGIYHIENAGVPSAIDLKDGSSSDGTPIVGWQFTPDTINWHQLWLAEPIPNVADTFTLCNLFSGTYMDLYNGSSEAGTAVNGWQGTAFTTNPHQLWTIKKSSDGTSYKIQNYGSKTFVDLVNGDSSDGAKIAGWTGTWDEGNPHQKWYFNRMSVSSAEAQAAIARNPHIHGTYRGYILDGEYLVLPNATFTQIWKDSGLPGSKWREQIYDCDDFAIAMKAAVGKWGADSWKANGFAIFCGVMLGVNKAGDAAHAYNFTLTKDHADIVFFEPQNGGYLNDIGYDSYMAFY
# Columns and labels:
# Assay in all cases: Agglutination of cells by Marasmius oreades lectin
# Assay type in all cases: cell-based
# [1] = test system: Cultured Ehrlich ascites tumor cells
# Method: (§1) In some embodiments, blood group specificity of MOA is determined in hemagglutination assays (see Examples below). Briefly, formaldehyde-treated erythrocytes in V-well microtitre plates are used in a protocol as described in Mo et al. [J. Biol. Chem 275:10623 (2000)], herein incorporated by reference. […] Example 3, below, presents the data for agglutination activity against a variety of cell types. […] Biochemistry 22: 5290 (1983)].
# (§2) Hemagglutination assays were carried out using formaldehyde-treated erythrocytes in V-well microtitre plates as described by Mo et al. [J. Biol. Chem 275:10623 (2000)], herein incorporated by reference. Titres were recorded as the greatest dilution of the lectin solution yielding visible agglutination. Agglutination of Ehrlich ascites tumor cells (grown in in vitro culture) was observed microscopically.
# (§3) Hemagglutination activity was unchanged by extensive dialysis of the lectin and assay in metal-free buffer containing EDTA, indicating the absence of a divatent metal ion requirement. As noted in Example 2, subsequent assays and purifications routinely used metal-free buffers containing EDTA.
# [2] = test system: Human B erythrocytes
# Method: as §1, §2, §3
# [3] = test system: Human O erythrocytes; settings: human type O erythrocytes
# Method: as §1, §2, §3
# [4] = test system: Human A erythrocytes; settings: human type A erythrocytes
# Method: as §1, §2, §3
molecule,measurement,setting,value
B1,agglutination,[1],readily agglutinated
same,hemagglutination activity,[2],Strong
same,hemagglutination activity,[3],very little activity
same,hemagglutination activity,[4],very little activity

# — patent US6958321B2, “Isolation, characterization, cloning and use of a mushroom lectin” (The Regents of the University of Michigan, priority 2001, dated 2005)
